The experiment addresses human PD-L1 on stably transfected cell line HEK293T/hPD-L1 (human, UniProt Q9NZQ7 19-290). Kind of experiment: FACS blocking of human PD-1/PD-L1 binding.

human PD-L1 on stably transfected cell line HEK293T/hPD-L1, sequence (Q9NZQ7 19-290): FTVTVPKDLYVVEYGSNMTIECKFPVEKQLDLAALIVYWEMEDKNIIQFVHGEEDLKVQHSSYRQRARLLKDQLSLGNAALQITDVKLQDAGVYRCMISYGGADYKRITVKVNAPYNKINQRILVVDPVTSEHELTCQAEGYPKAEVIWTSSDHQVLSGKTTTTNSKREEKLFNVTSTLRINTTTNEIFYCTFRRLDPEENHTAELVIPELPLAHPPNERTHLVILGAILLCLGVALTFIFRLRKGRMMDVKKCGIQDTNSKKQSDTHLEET

B1: h_Nb2 (expressed from pFUSE-hIgG1-Fc) (Fc fusion)
chain: DVQLQESGGGLVQPGGSLRLSCAASGFTFGDRWMYWLRQAPGKGLEWVSSINPAGRSTYYADSVKGRFTISRDNAKNTLYLQMNSLKSEDTAVYYCTKDPGGYQKGQGTQVTVSS
In turn, B1 displayed a 50% inhibitory concentration (IC50) of 0.106 µg/mL.

B2: h_Nb1 (expressed from pFUSE-hIgG1-Fc) (Fc fusion)
chain: DVQLQESGGGLVQPGGSLRLSCAASGFTFSSYAMSWVRQAPGKGLEWVSDINSGGDNTDYADSVKGRFTISRDNAKNTLYLQMNSLKPEDTAVYYCARGPKLCFSSWGQGTQVTVSS
With B2, the IC50 was 0.751 µg/mL.

One may read the IC50 as the concentration that gives 50% inhibition.

The record behind these values is patent US20250197503A1 (published 2025).
